From patent US7465453B2, “Polypeptide fragments of CKLF1” (Peking University, priority 2004, dated 2008)

Legend:
Assay type in all cases: cell-based
CCR4 [1] = target: T1, CCR4 (Homo sapiens, UniProt P51679); assay: Calcium flux assay in CCR4-transfected HEK293 cells; conditions: for calcium flux: CCR4-transfected HEK293 cells, 167 nM C27 or C19, 100 nM TARC; for desensitization of transfectants to subsequent TARC treatment: CCR4 transfectants, first 167 nM peptide, then 100 nM TARC
T1 construct: The cDNA fragments covering the open reading frames for various chemokine receptors were obtained as follows; expressed in transfected cells; host or cells: HEK293 (transient, electroporation)
T1 sequence (P51679 1-360): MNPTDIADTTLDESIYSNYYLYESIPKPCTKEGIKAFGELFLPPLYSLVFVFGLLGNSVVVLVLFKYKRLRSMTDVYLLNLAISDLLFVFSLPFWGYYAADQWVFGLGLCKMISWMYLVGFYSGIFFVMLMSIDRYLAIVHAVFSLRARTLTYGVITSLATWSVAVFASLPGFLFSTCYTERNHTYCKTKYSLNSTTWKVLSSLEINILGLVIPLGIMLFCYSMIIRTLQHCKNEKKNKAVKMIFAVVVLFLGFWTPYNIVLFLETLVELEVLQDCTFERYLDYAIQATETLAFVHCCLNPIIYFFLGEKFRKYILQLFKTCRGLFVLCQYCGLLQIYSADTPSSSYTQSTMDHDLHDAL
Source text: (§1) The cDNA fragments covering the open reading frames for various chemokine receptors were obtained as follows. CCR4, CCR5 and CCR6 receptors were cloned from a K562 cell cDNA library by polymerase chain reaction (PCR). The primers were designed using the sequences from the following GenBank™ submissions: CCR4 (NM_005508.2), CCR5 (NM_000579) and CCR6 (AY242126). The fragments were cloned into an expression vector pcDI (modified in our lab from pcDNA3 vector (Invitrogen), in which the part between BgI II-Kpn I was replaced by the fragment of pCl vector (Promega) digested with BgI II-Kpn I) or pEGFP-N1 vector (CLONTECH) for efficient expression in HEK293 cells. The sequences coding receptors in expression plasmids were confirmed by DNA sequencing, which is consistent with the sequence submitted in GenBank™.
(§2) HEK293 cells were grown in RPMI 1640 supplemented with 10% heat-inactivated FBS, penicillin (100 U/ml) and streptomycin (100 μg/ml). Every 4×10^6 HEK293 cells in 400 μl were transiently transfected by electroporation with 15 μg of the expression plasmid at 120 V, 20 ms using an electric pulse generator (Electro Square Porator ECM 830, BTX, San Diego, Calif.), and calcium mobilization assay and chemotaxis assays were performed 48 hours later.
(§3) HEK293 cells transfected with pcDI-CCR4 or pcDI-CCR5 were grown in specialized glass-bottom microwell dishes (MatTek Corporation, U.S.A.) and loaded with 10 μM fluo-3/AM in HEPES-buffered saline at 37° C. for 1 hour in the dark. The cells were rinsed with HEPES-buffered saline and stimulated with 167 nM secreted CKLF1 peptides and 100 nM TARC or RANTES, respectively. Fluorescence was monitored at 488 nm (excitation wavelength) and 530 nm (emission wavelength) every 5 second using a Leica TCS-NT confocal fluorescence microscope with a 40× oil immersion lens (Wetzler, Heidelberg, Germany). The measurement was completed at room temperature and each field of cells was selected at random. Images were collected at 5 second intervals for 405 seconds. The images were analyzed for relative fluorescence using Leica confocal software. The relative fluorescence was determined using Microsoft Excel. All calcium flux assays were performed in the presence of extracellular calcium (in the absence of EDTA or EGTA) in the assay buffers. Therefore, both intracellular calcium release and extracellular calcium influx were analyzed.

CCR5 [2] = target: T2, CCR5 (Homo sapiens, UniProt P51681); assay: Calcium flux assay in CCR5-transfected HEK293 cells; conditions: for calcium flux: CCR5-transfected HEK293 cells, 167 nM C27 or C19, 100 nM RANTES; for desensitization of transfectants to subsequent RANTES treatment: CCR5 transfectants, first 167 nM peptide, then 100 nM RANTES
T2 construct: The cDNA fragments covering the open reading frames for various chemokine receptors were obtained as follows; expressed in transfected cells; host or cells: HEK293 (transient, electroporation)
T2 sequence (P51681 whole entry, the tested form may be a part): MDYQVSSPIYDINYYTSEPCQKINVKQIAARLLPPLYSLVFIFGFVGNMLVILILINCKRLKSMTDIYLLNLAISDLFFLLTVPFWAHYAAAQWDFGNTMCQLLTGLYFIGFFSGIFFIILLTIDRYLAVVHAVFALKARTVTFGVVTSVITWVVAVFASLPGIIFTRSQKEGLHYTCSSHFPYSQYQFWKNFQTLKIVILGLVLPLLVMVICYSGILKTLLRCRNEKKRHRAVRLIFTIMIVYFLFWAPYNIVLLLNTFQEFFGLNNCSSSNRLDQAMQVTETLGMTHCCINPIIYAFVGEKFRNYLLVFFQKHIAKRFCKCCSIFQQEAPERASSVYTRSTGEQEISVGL
Source text: as §1, §2, §3

CCR4 [3] = target: T1, CCR4; assay: Chemotaxis assay (48-well microchemotaxis chamber) of HEK293 cells transfected with CCR4; conditions: for chemotaxis induced after PTX pretreatment: CCR4-transfected HEK293 cells treated with 100 ng/ml PTX at 37° C. for 30 min; for desensitization of the receptor to subsequent stimulation with TARC, C27 or C19 (chemotaxis): HEK293/CCR4, pretreatment TARC or 2 μg/ml C27 or C19, 37° C., 30 min
Method: as §2
(§4) The chemotaxis assay was performed using a 48-well microchemotaxis chamber (Neutroprobe; Cabin John, Md., U.S.A.). Chemoattractants were diluted in HEPES-buffered RPMI 1640 medium supplemented with 0.1% BSA and placed in the lower wells (28 μl/well). HEK293 cells transfected with pcDI-CCR4, -CCR5 were resuspended in the same medium at 2×10^6 cells/ml and added to the upper wells (50 μl/well), which were separated from the lower wells by a polyvinylpyrrolidone-free polycarbonate filter with 8-μm pores. The chamber was incubated for 2 hours at 37° C. in 5% CO2 and 95% air. Filters were removed from the chamber, washed, fixed, and stained with Three Step Stain Set. Cells that migrated were counted in 5 randomly selected high power fields (400×) per well. The chemotactic index (CI) was calculated from the number of cells that migrated to the control. Significant chemotaxis was defined as CI>2. In some experiments, cells were pretreated with TARC, RANTES, purified CKLF-myc protein or secreted CKLF1 peptides for 30 min. at 37° C., or 100 ng/ml PTX (ALEXIS Biochemicals Corporation) for 6 hours at 37° C. prior to subsequent stimulations.

CCR5 [4] = target: T2, CCR5; assay: Chemotaxis assay (48-well microchemotaxis chamber) of HEK293 cells transfected with CCR5; conditions: for chemotaxis induced after PTX pretreatment: CCR5-transfected HEK293 cells treated with 100 ng/ml PTX at 37° C. for 30 min; for desensitization of the receptor to subsequent stimulation with RANTES, C27 or C19 (chemotaxis): HEK293/CCR5, pretreatment 1 mM RANTES or 2 μg/ml C27 or C19, 37° C., 30 min
Method: as §2
as §4, with “In some experiments, cells were pretreated with TARC, RANTES, purified CKLF-myc protein or secreted CKLF1 peptides for 30 min. at 37° C., or 100 ng/ml PTX (ALEXIS Biochemicals Corporation) for 6 hours at 37° C. prior to subsequent stimulations.” left out

CCR4 [5] = target: T1, CCR4; assay: Internalization of CCR4-EGFP in transiently transfected HEK293 cells; conditions: HEK293 cells transfected with pCCR4-EGFP; 37° C., 2 hours
Method: The cDNA fragment covering the open reading frame for CCR4 chemokine receptor was cloned into pEGFP-N1 vector (CLONTECH). pCCR4-EGFP transiently expressing HEK293 cells were cultured in glass-bottom dishes in RPMI 1640 with 10% FBS. After 16 to 24 hours serum starvation, cells were treated with CKLF1 C-terminal peptides or TARC at 37° C. for 2 hours. Cells were washed with cold PBS and fixed with 2% paraformaldehyde in PBS. The subcellular localization of CCR4-EGFP protein was visualized using a Leica TCS-NT confocal fluorescence microscope with a 63× oil immersion lens (Wetzler, Heidelberg, Germany). The excitation and emission wavelengths were 488 and 515-540 nm, respectively.

calcium flux (CCR4 [1])	calcium flux (CCR5 [2])	chemotaxis induced after PTX pretreatment (CCR4 [3])	chemotaxis induced after PTX pretreatment (CCR5 [4])	migration (chemotaxis) of transfected cells (CCR4 [3]; CCR4-transfected HEK293 cells)	migration (chemotaxis) of transfected cells (CCR5 [4]; CCR5-transfected HEK293 cells)	Substance	desensitization of transfectants to subsequent TARC treatment (CCR4 [1])	desensitization of transfectants to subsequent RANTES treatment (CCR5 [2])	desensitization of the receptor to subsequent stimulation with TARC, C27 or C19 (chemotaxis) (CCR4 [3])	desensitization of the receptor to subsequent stimulation with RANTES, C27 or C19 (chemotaxis) (CCR5 [4])	internalization of CCR4-EGFP (CCR4 [5])
could induce calcium flux	a strong calcium flux	completely abolished by PTX	completely abolished by PTX			FNPSGPYQKKPVHEKKEVL (listed as Homo sapiens) [C19]	could desensitize	could desensitize	could desensitize the receptor	could desensitize the receptor	could induce internalization of CCR4-EGFP
could induce calcium flux	a strong calcium flux	completely abolished by PTX	completely abolished by PTX	could induce migration	could induce migration	ALIYRKL LFNPSGPYQKKPVHEKKEVL (ALIYRKLLFNPSGPYQKKPVHEKKEVL; listed as Homo sapiens) [C27]	could desensitize	could desensitize	could desensitize the receptor	could desensitize the receptor	could induce internalization of CCR4-EGFP
